Assay results taken from US20210032312A1 (Janssen / Centocor, published 2021).
Substitutions are numbered along the chain they refer to. Each block holds one binder with its values, some of them ahead of it.

Columns and labels:
[1] = molecular target: T1, cynomolgus monkey CD8A on primary cynomolgus monkey CD8+ T cells (cynomolgus monkey, UniProt P01732 23-235 (human entry)); test: flow cytometry, cyno CD8+ T cells, 0.2 uM FN3
T1 construct: also called Cyno CD8alpha

[2] = molecular target: T2, human CD8 alpha (CD8A) on primary human CD8+ T cells (human, UniProt P01732 22-235); test: flow cytometry, human CD8+ T cells, 0.2 uM FN3
T2 construct: whole, on cells; also called hCD8A

[3] = molecular target: T2, human CD8 alpha (CD8A) on primary human …; test: flow cytometry, human CD8+ T cells, 2 uM FN3
In house human CD8A-Fc = molecular target: T3, In house human CD8A-Fc (human, UniProt P01732 22-182, limits assumed); test: SPR (ProteOn), captured hCD8A-Fc
T3 construct: Captured on goat anti-human Fc on a ProteOn GLC chip; also called hCD8A-Fc; recombinant human CD8 alpha; not shown: linker with flag (and polyhistidine) tag and Fc of human IgG1

[4] = molecular target: T1, cynomolgus monkey CD8A on primary …; test: flow cytometry, cyno CD8+ T cells, 2 uM FN3

T1 sequence (P01732 other isoform, or with tags, fused parts or gaps limits assumed): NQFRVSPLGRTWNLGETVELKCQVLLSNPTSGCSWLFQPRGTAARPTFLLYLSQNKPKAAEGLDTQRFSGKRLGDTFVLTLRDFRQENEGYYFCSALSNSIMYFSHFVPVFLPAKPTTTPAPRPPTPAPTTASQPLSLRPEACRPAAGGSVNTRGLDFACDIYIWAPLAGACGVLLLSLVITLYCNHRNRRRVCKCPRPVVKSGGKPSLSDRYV
T3 sequence (P01732 22-182 limits assumed): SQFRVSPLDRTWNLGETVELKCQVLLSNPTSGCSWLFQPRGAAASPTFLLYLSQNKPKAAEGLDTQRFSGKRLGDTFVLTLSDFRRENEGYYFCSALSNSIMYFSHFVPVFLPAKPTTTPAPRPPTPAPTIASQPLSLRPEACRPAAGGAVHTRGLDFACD
T2 sequence (P01732 22-235): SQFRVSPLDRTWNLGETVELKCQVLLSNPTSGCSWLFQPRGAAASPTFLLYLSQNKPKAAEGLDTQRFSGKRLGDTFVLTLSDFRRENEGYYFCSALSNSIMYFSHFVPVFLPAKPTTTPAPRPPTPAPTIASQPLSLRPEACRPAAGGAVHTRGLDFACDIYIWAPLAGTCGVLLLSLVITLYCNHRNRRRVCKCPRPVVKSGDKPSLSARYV

Cyno T-cell Binding 0.2 uM (MFI) [1]: 7580 MFI | Human T-cell Binding 0.2 uM (MFI) [2]: 5080 MFI | Human T-cell Binding 2 uM (MFI) [3]: 25900 MFI | koff (In house human CD8A-Fc): 0.000175 s⁻¹ | Cyno T-cell Binding 2 uM (MFI) [4]: 52800 MFI
B1: P282ER9P1360_C6 (designed binder)
chain: LSAPKNLVVSRVTEDSARLSWTAPDAAFDSFGILYYEPVDSGEAITLPIPGSERSYDLTGLKPGTEYWVVITGVKGGAPSTPLGAIFTT
notes: FN3 domain

Cyno T-cell Binding 0.2 uM (MFI) [1]: 6010 MFI | Human T-cell Binding 0.2 uM (MFI) [2]: 2670 MFI | Human T-cell Binding 2 uM (MFI) [3]: 26600 MFI | koff (In house human CD8A-Fc): 0.000517 s⁻¹ | Cyno T-cell Binding 2 uM (MFI) [4]: 78600 MFI
B3: P282DR9P1359_G4 (designed binder)
chain: LPAPKNLVVSRVTEDSARLSWTAPDAAFDSFEIAYPEWPPPGEAIVLTVPGSERSYDLTGLKPGPEYFVVIQGVKGGDPSFPLSAIFTTGGNHHHHH
notes: FN3 domain

Cyno T-cell Binding 0.2 uM (MFI) [1]: 500 MFI | Human T-cell Binding 0.2 uM (MFI) [2]: 278 MFI | Human T-cell Binding 2 uM (MFI) [3]: 919 MFI | koff (In house human CD8A-Fc): 0.00449 s⁻¹ | Cyno T-cell Binding 2 uM (MFI) [4]: 2250 MFI
B4: P282DR9P1359_H5 (designed binder)
chain: LPAPKNLVVSRVTEDSARLSWTAPDAAFDSFNIAYPEALHPGYGEAIVLTVPGSERSYDLTGLKPGTEYFVVIYGVKGGTNSEPLSAIFTT
notes: FN3 domain

Cyno T-cell Binding 0.2 uM (MFI) [1]: 16100 MFI | Human T-cell Binding 0.2 uM (MFI) [2]: 6590 MFI | Human T-cell Binding 2 uM (MFI) [3]: 35600 MFI | koff (In house human CD8A-Fc): 0.000554 s⁻¹ | Cyno T-cell Binding 2 uM (MFI) [4]: 86700 MFI
B7: P282DR9P1359_F11 (designed binder)
chain: LPAPKNLVVSRVTEDSARLSWTAPDAAFDSFDIFYPELPIHGEAIVLTVPGSERSYDLTGLKPGTEYWVNITGVKGGDFSWPLSAIFTT
notes: FN3 domain

Cyno T-cell Binding 0.2 uM (MFI) [1]: 26300 MFI | Human T-cell Binding 0.2 uM (MFI) [2]: 6930 MFI | Human T-cell Binding 2 uM (MFI) [3]: 38300 MFI | koff (In house human CD8A-Fc): 0.000365 s⁻¹ | Cyno T-cell Binding 2 uM (MFI) [4]: 96500 MFI
B10: P282DR9P1359_F7 (designed binder)
chain: LPAPKNLVVSRVTEDSARLSWTAPDAAFDSFAIAYPEWPPQGEAIVLTVPGSERSYDLTGLKPGTEYFVVIYGVKGGSYSAPLSAIFTT
notes: FN3 domain

More lines, now with the values behind:

B2: P282DR9P1359_B2 (designed binder)
chain: LPAPKNLVVSRVTEDSARLSWTAPDAAFDSFWIAYTEWPIPYEEAGQEGEAIVLTVPGSERSYDLTGLKPGTEYWVSIYGVKGGPNSQPLSAIFTT
notes: FN3 domain
Cyno T-cell Binding 0.2 uM (MFI) [1]: 4470 MFI | Human T-cell Binding 0.2 uM (MFI) [2]: 2730 MFI | Human T-cell Binding 2 uM (MFI) [3]: 22200 MFI | koff (In house human CD8A-Fc): 0.000638 s⁻¹ | Cyno T-cell Binding 2 uM (MFI) [4]: 60900 MFI

B5: P282DR9P1359_E8 (designed binder)
chain: B10 chain with A32Q, P40V, Q41I, F68W, V70I, Y72Q, S78Y, Y79T, A81W
notes: FN3 domain
Cyno T-cell Binding 0.2 uM (MFI) [1]: 16900 MFI | Human T-cell Binding 0.2 uM (MFI) [2]: 2920 MFI | Human T-cell Binding 2 uM (MFI) [3]: 26100 MFI | koff (In house human CD8A-Fc): 0.00119 s⁻¹ | Cyno T-cell Binding 2 uM (MFI) [4]: 81000 MFI

B6: P282DR9P1359_E2 (designed binder)
chain: B7 chain with D32N, L38I, P39V, I40T, H41W, T72V, F79N
notes: FN3 domain
Cyno T-cell Binding 0.2 uM (MFI) [1]: 10900 MFI | Human T-cell Binding 0.2 uM (MFI) [2]: 4820 MFI | Human T-cell Binding 2 uM (MFI) [3]: 28500 MFI | koff (In house human CD8A-Fc): 0.00206 s⁻¹ | Cyno T-cell Binding 2 uM (MFI) [4]: 77700 MFI

B8: P282DR9P1359_F6 (designed binder)
chain: B10 chain with A32D, P40T, Q41T, Y72W, S78D, Y79H
notes: FN3 domain
Cyno T-cell Binding 0.2 uM (MFI) [1]: 10700 MFI | Human T-cell Binding 0.2 uM (MFI) [2]: 3780 MFI | Human T-cell Binding 2 uM (MFI) [3]: 19900 MFI | koff (In house human CD8A-Fc): 0.000389 s⁻¹ | Cyno T-cell Binding 2 uM (MFI) [4]: 73200 MFI

B9: P282DR9P1359_E11 (designed binder)
chain: B10 chain with A32Y, A34S, Q41V, F68W, V70I, S78A, Y79I, A81T
notes: FN3 domain
Cyno T-cell Binding 0.2 uM (MFI) [1]: 33100 MFI | Human T-cell Binding 0.2 uM (MFI) [2]: 7580 MFI | Human T-cell Binding 2 uM (MFI) [3]: 40600 MFI | koff (In house human CD8A-Fc): 0.000265 s⁻¹ | Cyno T-cell Binding 2 uM (MFI) [4]: 104000 MFI

B11: P282DR9P1359_F3 (designed binder)
chain: B10 chain with A32Y, A34T, P40V, F68W, V70I, S78T, Y79E, A81E
notes: FN3 domain
Cyno T-cell Binding 0.2 uM (MFI) [1]: 3080 MFI | Human T-cell Binding 0.2 uM (MFI) [2]: 646 MFI | Human T-cell Binding 2 uM (MFI) [3]: 6340 MFI | koff (In house human CD8A-Fc): 0.00106 s⁻¹ | Cyno T-cell Binding 2 uM (MFI) [4]: 48900 MFI

B12: P282DR9P1359_F2 (designed binder)
chain: LPAPKNLVVSRVTEDSARLSWTAPDAAFDSFNIAYPEALHPGYGEAIVLTVPGSERSYDLTGLKPGTEYWVIIGGVKGGQKSWPLSAIFTTGGHHHDHH
notes: FN3 domain
Cyno T-cell Binding 0.2 uM (MFI) [1]: 4030 MFI | Human T-cell Binding 0.2 uM (MFI) [2]: 3050 MFI | Human T-cell Binding 2 uM (MFI) [3]: 18400 MFI | koff (In house human CD8A-Fc): 0.000722 s⁻¹ | Cyno T-cell Binding 2 uM (MFI) [4]: 38200 MFI

B13: P282CR9P1358_F11 (designed binder)
chain: LPAPKNLVVSRVTEDSARLSWTAPDAAFDSFLIAYPEWPIFEGEAIVLTVPGSERSYDLTGLKPGTEYFVVIYGVKGGEQSSPLSAIFTT
notes: FN3 domain
Cyno T-cell Binding 0.2 uM (MFI) [1]: 6580 MFI | Human T-cell Binding 0.2 uM (MFI) [2]: 749 MFI | Human T-cell Binding 2 uM (MFI) [3]: 6420 MFI | koff (In house human CD8A-Fc): 0.00135 s⁻¹ | Cyno T-cell Binding 2 uM (MFI) [4]: 62400 MFI

B14: P282DR9P1359_C5 (designed binder)
chain: B13 chain with L32W, A34T, I40D, F41P, E42G, Q80I, S81Y
notes: FN3 domain
Cyno T-cell Binding 0.2 uM (MFI) [1]: 14200 MFI | Human T-cell Binding 0.2 uM (MFI) [2]: 5550 MFI | Human T-cell Binding 2 uM (MFI) [3]: 31000 MFI | koff (In house human CD8A-Fc): 0.000174 s⁻¹ | Cyno T-cell Binding 2 uM (MFI) [4]: 95700 MFI
